B1: Snx25_A (dsDNA)
DNA 1: TCAGAAAAAGGGAAAAGGGTCAC
DNA 2: GTGACCCTTTTCCCTTTTTCTGA
B2: Snx29_Right (dsDNA)
DNA 1: TCAGACACTGAGAATACTGTCAC
DNA 2: GTGACAGTATTCTCAGTGTCTGA
B3: Snx29_Left (dsDNA)
DNA 1: TCAGATACTGGGAACACTGTCAC
DNA 2: GTGACAGTGTTCCCAGTATCTGA

Molecular target: Ikaros zinc fingers 2-4 (F2-F4) (UniProt Q03267 144-223)
Test: EMSA

Ikaros zinc fingers 2-4 (F2-F4), sequence (Q03267 144-223): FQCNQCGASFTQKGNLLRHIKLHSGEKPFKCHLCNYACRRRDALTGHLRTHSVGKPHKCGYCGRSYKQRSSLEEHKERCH

Binder | binding result
B1 | binds
B2 | no binding
B3 | binds

Molecular target: Ikaros zinc fingers 1-3 (F1-F3) (UniProt Q03267 117-194)
Test: EMSA

Ikaros zinc fingers 1-3 (F1-F3), sequence (Q03267 117-194): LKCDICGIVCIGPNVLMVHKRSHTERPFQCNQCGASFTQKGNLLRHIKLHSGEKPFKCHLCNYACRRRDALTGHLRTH

Binder | binding result
B1 | no binding
B2 | no binding
B3 | binds

Molecular target: Ikaros zinc fingers 1-4 (F1-F4) (UniProt Q03267 117-223)
Test: EMSA

Ikaros zinc fingers 1-4 (F1-F4), sequence (Q03267 117-223): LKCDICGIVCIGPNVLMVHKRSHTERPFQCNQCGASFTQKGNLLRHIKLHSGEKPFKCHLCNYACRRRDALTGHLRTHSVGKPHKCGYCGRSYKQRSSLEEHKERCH

Binder | binding result
B1 | binds
B2 | no binding
B3 | binds

From PMC3800053
